Here are results for one molecule from PMC2566891 (Nucleic Acids Research, 2008).

This assay has as its system p53/DNA complex (p21 dsDNA). Kind of assay: Electrophoretic mobility shift assay. The settings on record: phosphorylated p53 8 µM, p21 DNA 4 µM, 14-3-3γ 0–20 µM; 0.8% agarose gel. Type of assay: binding.

B1: 14-3-3: recombinant 14-3-3 protein (γ isoform in EMSA, Figure 5A) (protein)
chain: MDDREDLVYQAKLAEQAERYDEMVESMKKVAGMDVELTVEERNLLSVAYKNVIGARRASWRIISSIEQKEENKGGEDKLKMIREYRQMVETELKLICCDILDVLDKHLIPAANTGESKVFYYKMKGDYHRYLAEFATGNDRKEAAENSLVAYKAASDIAMTELPPTHPIRLGLALNFSVFYYEILNSPDRACRLAKAAFDDAIAELDTLSEESYKDSTLIMQLLRDNLTLWTSDMQGDGEEQNKEALQDVEDENQ
In the case of B1, the p53/DNA complex formation entry is given as “enhanced the p53/DNA complex formation”.
